Test results reported in patent US20240352102A1 (UNITED STATES GOVERNMENT AS REPRESENTED BY THE DEPARTMENT …, published 2024).

Tests used:
Peptide_071 = target: T1, Peptide_071; assay: peptide microarray
T1 peptide: YKPVDLSKVTSKCGS

Peptide_068 = target: T2, Peptide_068; assay: peptide microarray
T2 peptide: KHVPGGGSVQIVYKP

Peptide_063 = target: T3, Peptide_063; assay: peptide microarray
T3 peptide: INKKLDLSNVQSKCG

Peptide_056 = target: T4, Peptide_056; assay: peptide microarray
T4 peptide: MPDLKNVKSKIGSTE

Peptide_066 = target: T5, Peptide_066; assay: peptide microarray
T5 peptide: KCGSKDNIKHVPGGG

Peptide_042 = target: T6, Peptide_042; assay: peptide microarray
T6 peptide: RSGYSSPGSPGTPGS

Peptide_055 = target: T7, Peptide_055; assay: peptide microarray
T7 peptide: APVPMPDLKNVKSKI

Peptide_074 = target: T8, Peptide_074; assay: peptide microarray
T8 peptide: CGSLGNIHHKPGGGQ

Peptide_054 = target: T9, Peptide_054; assay: peptide microarray
T9 peptide: RLQTAPVPMPDLKNV

Peptide_004 = target: T10, Peptide_004; assay: peptide microarray
T10 peptide: DHAGTYGLGDRKDQG

Peptide_024 = target: T11, Peptide_024; assay: peptide microarray
T11 peptide: VTQARMVSKSKDGTG

Peptide_013 = target: T12, Peptide_013; assay: peptide microarray
T12 peptide: QTPTEDGSEEPGSET

Peptide_028 = target: T13, Peptide_028; assay: peptide microarray
T13 peptide: DDKKAKGADGKTKIA

Peptide_008 = target: T14, Peptide_008; assay: peptide microarray
T14 peptide: YTMHQDQEGDTDAGL

Peptide_003 = target: T15, Peptide_003; assay: peptide microarray
T15 peptide: EVMEDHAGTYGLGDR

Peptide_019 = target: T16, Peptide_019; assay: peptide microarray
T16 peptide: EAEEAGIGDTPSLED

Peptide_002 = target: T17, Peptide_002; assay: peptide microarray
T17 peptide: RQEFEVMEDHAGTYG

Peptide_029 = target: T18, Peptide_029; assay: peptide microarray
T18 peptide: AKGADGKTKIATPRG

Peptide_032 = target: T19, Peptide_032; assay: peptide microarray
T19 peptide: PRGAAPPGQKGQANA

Peptide_033 = target: T20, Peptide_033; assay: peptide microarray
T20 peptide: APPGQKGQANATRIP

Peptide_031 = target: T21, Peptide_031; assay: peptide microarray
T21 peptide: KIATPRGAAPPGQKG

Peptide_007 = target: T22, Peptide_007; assay: peptide microarray
T22 peptide: DQGGYTMHQDQEGDT

Peptide_006 = target: T23, Peptide_006; assay: peptide microarray
T23 peptide: GDRKDQGGYTMHQDQ

Peptide_014 = target: T24, Peptide_014; assay: peptide microarray
T24 peptide: EDGSEEPGSETSDAK

Peptide_021 = target: T25, Peptide_021; assay: peptide microarray
T25 peptide: DTPSLEDEAAGHVTQ

Peptide_011 = target: T26, Peptide_011; assay: peptide microarray
T26 peptide: AGLKESPLQTPTEDG

Peptide_016 = target: T27, Peptide_016; assay: peptide microarray
T27 peptide: SETSDAKSTPTAEAE

Peptide_030 = target: T28, Peptide_030; assay: peptide microarray
T28 peptide: DGKTKIATPRGAAPP

Peptide_036 = target: T29, Peptide_036; assay: peptide microarray
T29 peptide: RIPAKTPPAPKTPPS

Peptide_012 = target: T30, Peptide_012; assay: peptide microarray
T30 peptide: ESPLQTPTEDGSEEP

Peptide_018 = target: T31, Peptide_018; assay: peptide microarray
T31 peptide: TPTAEAEEAGIGDTP

Peptide_027 = target: T32, Peptide_027; assay: peptide microarray
T32 peptide: GTGSDDKKAKGADGK

Peptide_009 = target: T33, Peptide_009; assay: peptide microarray
T33 peptide: QDQEGDTDAGLKESP

Peptide_023 = target: T34, Peptide_023; assay: peptide microarray
T34 peptide: AAGHVTQARMVSKSK

Peptide_005 = target: T35, Peptide_005; assay: peptide microarray
T35 peptide: TYGLGDRKDQGGYTM

Peptide_026 = target: T36, Peptide_026; assay: peptide microarray
T36 peptide: KSKDGTGSDDKKAKG

Peptide_017 = target: T37, Peptide_017; assay: peptide microarray
T37 peptide: DAKSTPTAEAEEAGI

Peptide_015 = target: T38, Peptide_015; assay: peptide microarray
T38 peptide: EEPGSETSDAKSTPT

Peptide_020 = target: T39, Peptide_020; assay: peptide microarray
T39 peptide: AGIGDTPSLEDEAAG

Peptide_010 = target: T40, Peptide_010; assay: peptide microarray
T40 peptide: GDTDAGLKESPLQTP

Peptide_025 = target: T41, Peptide_025; assay: peptide microarray
T41 peptide: RMVSKSKDGTGSDDK

Peptide_001 = target: T42, Peptide_001; assay: peptide microarray
T42 peptide: MAEPRQEFEVMEDHA

Peptide_022 = target: T43, Peptide_022; assay: peptide microarray
T43 peptide: LEDEAAGHVTQARMV

[1] = target: T44, recombinant human tau incubated with poly(A) RNA (human, UniProt P10636-7 1-412, limits assumed); assay: dot blot, 20 ng tau, 8 replicates, reference heparin incubated tau
T44 construct: Oligomeric complex with RNA; also called tau/RNA complexes; TRCs
T44 sequence (P10636 other isoform, or with tags, fused parts or gaps limits assumed): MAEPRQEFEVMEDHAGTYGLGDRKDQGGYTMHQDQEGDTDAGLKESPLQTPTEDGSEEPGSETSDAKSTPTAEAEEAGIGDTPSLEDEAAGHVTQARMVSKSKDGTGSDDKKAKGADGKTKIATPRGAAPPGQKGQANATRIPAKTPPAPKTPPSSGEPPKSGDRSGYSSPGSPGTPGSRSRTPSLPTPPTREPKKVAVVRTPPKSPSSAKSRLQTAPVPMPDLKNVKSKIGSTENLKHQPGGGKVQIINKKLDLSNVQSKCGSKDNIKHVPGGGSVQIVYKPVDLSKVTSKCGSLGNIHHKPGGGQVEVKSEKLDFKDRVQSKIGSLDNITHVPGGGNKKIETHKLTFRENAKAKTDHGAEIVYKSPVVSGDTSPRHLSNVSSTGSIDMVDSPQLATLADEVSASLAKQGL
Experimental: To control for other polyanions inducing the TRC35+ tau conformation, recombinant protein was purified from E. coli overexpressing human tau. Twenty ng of purified tau proteins was incubated with poly(A) RNA or Heparin as shown in representative blots above. In total, 8 replicate samples were dot blotted with mAb TRC35 (FIG. 11A) and SP70 total tau mAb (FIG. 11B) as previously described for FIG. 1.

B1: mAb TRC35 (antibody, V domains shown)
VH: QVQLQQPGTELVKPGASVKLSCKASGYTFTSYWLQWVKQRPGQGLEWIGEIDPSDSYTNYNQKFKGKATLTVDTSSSTAYMQLSSLTSEDSAVYYCATLTGSWGQGTTLAVSS
VL: DVLLTQTPLSLPVSLGDQASISCRASQSIVDSNGNTFLEWYLQKSGQSPKVLIYKVSNRFSGVPDRFSGRGSGTDFTLKISRVEAEDLGVYYCFQGSHVPYTFGGGTKLEIK
notes: Mouse hybridoma monoclonal antibody raised in tau knockout mice against tau/poly(A) RNA complexes; IgG1 isotype, kappa light chain; also called TRC35 monoclonal antibody; hybridoma clone #35
Peptide_071
  binding result: no binding (tested: 1 ug/ml)
Peptide_068
  binding result: no binding (tested: 1 ug/ml)
Peptide_063
  binding result: no binding (tested: 1 ug/ml)
Peptide_056
  binding result: no binding (tested: 1 ug/ml)
Peptide_066
  binding result: no binding (tested: 1 ug/ml)
Peptide_042
  binding result: no binding (tested: 1 ug/ml)
Peptide_055
  binding result: no binding (tested: 1 ug/ml)
Peptide_074
  binding result: no binding (tested: 1 ug/ml)
Peptide_054
  binding result: no binding (tested: 1 ug/ml)
Peptide_004
  binding result: no binding (tested: 1 ug/ml)
Peptide_024
  binding result: no binding (tested: 1 ug/ml)
Peptide_013
  binding result: no binding (tested: 1 ug/ml)
Peptide_028
  binding result: no binding (tested: 1 ug/ml)
Peptide_008
  binding result: no binding (tested: 1 ug/ml)
Peptide_003
  binding result: no binding (tested: 1 ug/ml)
Peptide_019
  binding result: no binding (tested: 1 ug/ml)
Peptide_002
  binding result: no binding (tested: 1 ug/ml)
Peptide_029
  binding result: no binding (tested: 1 ug/ml)
Peptide_032
  binding result: no binding (tested: 1 ug/ml)
Peptide_033
  binding result: no binding (tested: 1 ug/ml)
Peptide_031
  binding result: no binding (tested: 1 ug/ml)
Peptide_007
  binding result: no binding (tested: 1 ug/ml)
Peptide_006
  binding result: no binding (tested: 1 ug/ml)
Peptide_014
  binding result: no binding (tested: 1 ug/ml)
Peptide_021
  binding result: no binding (tested: 1 ug/ml)
Peptide_011
  binding result: no binding (tested: 1 ug/ml)
Peptide_016
  binding result: no binding (tested: 1 ug/ml)
Peptide_030
  binding result: no binding (tested: 1 ug/ml)
Peptide_036
  binding result: no binding (tested: 1 ug/ml)
Peptide_012
  binding result: no binding (tested: 1 ug/ml)
Peptide_018
  binding result: no binding (tested: 1 ug/ml)
Peptide_027
  binding result: no binding (tested: 1 ug/ml)
Peptide_009
  binding result: no binding (tested: 1 ug/ml)
Peptide_023
  binding result: no binding (tested: 1 ug/ml)
Peptide_005
  binding result: no binding (tested: 1 ug/ml)
Peptide_026
  binding result: no binding (tested: 1 ug/ml)
Peptide_017
  binding result: no binding (tested: 1 ug/ml)
Peptide_015
  binding result: no binding (tested: 1 ug/ml)
Peptide_020
  binding result: no binding (tested: 1 ug/ml)
Peptide_010
  binding result: no binding (tested: 1 ug/ml)
Peptide_025
  binding result: no binding (tested: 1 ug/ml)
Peptide_001
  binding result: no binding (tested: 1 ug/ml)
Peptide_022
  binding result: no binding (tested: 1 ug/ml)
[1]
  fold TRC35 signal normalized to SP70, relative to heparin: ~2 fold
